From patent publication US20240352128A1 (NANJING GENSCRIPT BIOTECH, published 2024) come the findings set out here.

B1: pTT5-AR8820-1.1mIgG1Fc (Fc fusion)
heavy: QVQLVESGGGVVQPGGSLRLSCAASGSSISRYAMAWYRQAPGKGRELVAVVRITGSPIYADFVGGRFTISRDNSKNTLYLQMNSLRAEDTAVYYCATGNFNTYTRRYSPSETWGKGTTVTVSSVPRDCGCKPCICTVPEVSSVFIFPPKPKDVLTITLTPKVTCVVVDISKDDPEVQFSWFVDDVEVHTAQTQPREEQFNSTFRSVSELPIMHQDWLNGKEFKCRVNSAAFPAPIEKTISKTKGRPKAPQVYTIPPPKEQMAKDKVSLTCMITDFFPEDITVEWQWNGQPAENYKNTQPIMDTDGSYFVYSKLNVQKSNWEAGNTFTCSVLHEGLHNHHTEKSLSHSPGK
notes: As m24
B2: pTT5-AR8804-3.3mIgG1Fc (Fc fusion)
heavy: B1 heavy with I29V, S56I, G64K, A96N
notes: As m24
B3: pTT5-AR8820-3.1 mIgG1Fc (Fc fusion)
heavy: B1 heavy with Q1E, V11L, S74A, T77S, K115Q, T118L
notes: As m24
B4: pTT5-AR8820-1.2mIgG1Fc (Fc fusion)
heavy: B1 heavy with L47W
notes: As m24
B5: pTT5-AR8804-3.2 mIgG1Fc (Fc fusion)
heavy: B1 heavy with I29V, L47W, S56I, G64K
notes: As m24
B6: pTT5-AR8820-2.1mIgG1Fc (Fc fusion)
VHH-Fc: B1 heavy with Q1E, V11L, V12I, A49S, K115Q
notes: As m24
B7: pTT5-AR8820-3.3 mIgG1Fc (Fc fusion)
VHH-Fc: B1 heavy with Q1E, V11L, S74A, T77S, A96N, K115Q, T118L
notes: As m24
B8: pTT5-AR8820-1.3mIgG1Fc (Fc fusion)
heavy: B1 heavy with A96N
notes: As m24
B9: pTT5-AR8820-2.3mIgG1Fc (Fc fusion)
VHH-Fc: B1 heavy with Q1E, V11L, V12I, A49S, A96N, T97R, K115Q
notes: As m24

Residue numbers refer to the chain shown, from its start.

The target in the assay is T1, cynomolgus monkey CD16a on HEK293 cells expressing cyno monkey CD16a (constructed by Genscript) (cynomolgus monkey, UniProt Q8SPW2 17-254).
T1 construct: whole, on cells; also called cynomolgus monkey CD16a protein
T1 sequence (Q8SPW2 17-254): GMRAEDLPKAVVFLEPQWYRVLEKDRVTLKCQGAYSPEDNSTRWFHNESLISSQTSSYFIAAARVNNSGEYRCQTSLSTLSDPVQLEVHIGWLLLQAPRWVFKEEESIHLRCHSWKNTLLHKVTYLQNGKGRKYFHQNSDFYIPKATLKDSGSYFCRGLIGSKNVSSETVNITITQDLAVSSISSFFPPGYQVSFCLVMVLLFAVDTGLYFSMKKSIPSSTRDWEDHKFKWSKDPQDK
The assay can be described thus: flow cytometry on HEK293 cells expressing cyno monkey CD16a. How it is done:
To determine the cross-reactions of antibody products, HEK293 cells expressing cyno monkey CD16a (constructed by Genscript) were harvested and incubated respectively with serially diluted anti-CD16a humanized sdAb-mIgG1Fcs (max. concentration: 100 nM, 3-fold dilution), followed by fluorophore (iFluor 647)-labeled goat anti mouse IgG (H+L) secondary antibodies (Jackson immuno research; catalog #: 115-605-062). The samples were then analyzed with flow cytometry. Raw data was plotted with GraphPad Prism v6.02 software with four parameters, best-fit values program to analyze the EC₅₀. The molecules of pTT5-AR8804-3.2 mIgG1Fc, pTT5-AR8804-3.3mIgG1Fc, pTT5-AR8820-1.1mIgG1Fc, pTT5-AR8820-1.2mIgG1Fc, pTT5-AR8820-1.3mIgG1Fc, pTT5-AR8820-2.1mIgG1Fc, pTT5-AR8820-2.3mIgG1Fc, pTT5-AR8820-3.1mIgG1Fc and pTT5-AR8820-3.3 mIgG1Fc manifested good cross-reaction with cynomolgus monkey CD16a protein (FIG. 13).
Take B1: the binding result is on record as “binds”.

For the molecule B2, the binding result was “binds”.

Regarding B3, the binding result is on record as “binds”.

In the case of B4, the binding result was “binds”.

B5: the binding result is “binds”.

For the molecule B6, the binding result is “binds”.

With B7, the binding result is on record as “binds”.

Regarding B8, the binding result is on record as “binds”.

With B9, the binding result was “binds”.
